B1: scFv D2B produced in prokaryotic system (bacteria) (scFv)
scFv: EVKLQESGPGLVKPSQSLSLTCSVTGYSITSGYYWNWIRQFPGNKLEWMGSISFDGNNNYNPSLRNRISITRDTSKNQFFLKLNSVTTEDTATYYCAREGDYYGSSFFTYWGQGTLVTVSSGGGGSGGGGSGGGGSALDIVMTQSPASLSASVGETVTLTCGASENIYGALNWYQRKQGKSPQLLIYGATNLADGMSSRFSGSGSGRQYSLKISSLHPDDVATYYCQNVFRTYTFGGGTKLEIKRAAAHHHHHH
notes: also called ScFvD2B from bacteria; scFv produced in bacteria; not shown: Myc tag
B2: scFv D2B produced in eukaryotic mammalian cells (scFv)
scFv: B1 scFv
notes: also called ScFvD2B from eukaryote; scFv produced in eukaryotic mammalian cells
B3: scFv D2B produced by synthesis (folded scFv D2B compound 27) (scFv)
scFv: B1 scFv
modifications: pyroglutamic acid (<E) at position 1
notes: Fully chemically synthesised, 254 residues, two disulfide bonds (C22-C96 and C161-C226); segment 5 is C226-H254; also called ScFvD2B of synthesis; scFv produced by synthesis

Among the data in patent EP4414386A1 (dated 2024) are Kd and RU max values, retold here.

As a reminder, the Kd is the concentration at which binding is half-saturated. Read a low Kd as higher affinity.

For the assay, the target named is T1, PSMA antigen (UniProt Q04609 1-750, limits assumed).
T1 construct: whole, on cells; On PC3-PIP cells in FACS and cell ELISA; in SPR captured on the CM5 chip from the cellular lysate of PC3-PIP by the 7E11 MAb; also called the antigen
T1 sequence (Q04609 whole entry): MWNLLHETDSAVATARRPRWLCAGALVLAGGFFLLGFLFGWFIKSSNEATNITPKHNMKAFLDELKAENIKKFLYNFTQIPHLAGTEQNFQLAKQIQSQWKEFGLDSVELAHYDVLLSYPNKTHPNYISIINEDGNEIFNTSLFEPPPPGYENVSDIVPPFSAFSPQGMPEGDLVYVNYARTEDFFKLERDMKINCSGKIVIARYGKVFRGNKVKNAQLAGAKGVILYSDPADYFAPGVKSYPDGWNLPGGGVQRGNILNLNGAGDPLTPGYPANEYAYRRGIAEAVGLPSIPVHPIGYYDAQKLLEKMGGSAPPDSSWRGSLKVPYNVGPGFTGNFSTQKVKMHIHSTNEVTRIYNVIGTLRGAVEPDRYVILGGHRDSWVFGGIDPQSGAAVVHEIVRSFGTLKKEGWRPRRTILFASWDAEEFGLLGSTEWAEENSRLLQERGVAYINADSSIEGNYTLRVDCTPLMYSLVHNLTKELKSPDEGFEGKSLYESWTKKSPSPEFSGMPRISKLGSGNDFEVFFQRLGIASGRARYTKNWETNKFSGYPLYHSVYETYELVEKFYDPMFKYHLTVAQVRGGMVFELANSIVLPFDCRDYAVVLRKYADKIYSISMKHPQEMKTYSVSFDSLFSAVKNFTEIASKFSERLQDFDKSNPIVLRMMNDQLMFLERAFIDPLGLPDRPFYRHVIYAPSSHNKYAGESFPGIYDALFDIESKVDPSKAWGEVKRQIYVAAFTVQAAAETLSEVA
Put plainly: SPR Biacore T200, single-cycle kinetics; PSMA captured from PC3-PIP lysate by 7E11 on CM5 chip. On the technique in general: SPR reads the build-up and loss of mass on a sensor chip optically.
With B1, binding was characterised by a dissociation constant (Kd) of 2.3 nM and the RU max was determined as 34 RU.

B2 returned a Kd of 2.8 nM and an RU max of 68 RU.

Turning to B3, binding was characterised by a dissociation constant (Kd) of 1.9 nM and the RU max is 34 RU.
